Results published in PMC7845647.

B1: ler (LEE1) promoter distal FadR site (FadR_ler site) (dsDNA)
DNA 1: TAATCGTTTGTCCGACTTTAACAGA
DNA 2: TCTGTTAAAGTCGGACAAACGATTA
B2: fadL promoter FadR site (FadR_fadL site) (dsDNA)
DNA 1: ATCTGGTACGACCAGAT
DNA 2: ATCTGGTCGTACCAGAT

Target: FadR (Escherichia coli (EHEC) 86-24, UniProt B5YXL1 1-239)
Experiment: EMSA; apo FadR, no ligand
Conditions: protein: recombinant, tags: N-terminal His (pET28, NdeI/BamHI), chain copies: 2, blunt

Chain of FadR (B5YXL1 whole entry): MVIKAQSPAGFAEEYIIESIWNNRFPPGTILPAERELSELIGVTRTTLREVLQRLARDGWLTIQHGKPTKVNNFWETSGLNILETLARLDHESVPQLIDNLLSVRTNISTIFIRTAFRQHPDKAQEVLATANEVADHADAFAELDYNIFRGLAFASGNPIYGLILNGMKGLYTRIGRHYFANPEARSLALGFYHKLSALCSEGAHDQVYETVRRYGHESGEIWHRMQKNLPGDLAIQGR

Binder	binding result (label: 32P (T4 PNK))	binding result (label: 32P (EMSA, T4 PNK), none stated in thermal shift)
B1	binds	
B2		binds
